{"source": "paper doi:10.1101/2022.01.21.477263", "assay_in_all_cases": "crystal structure", "key": {"[1]": {"target": "HIV-1 (M) CA R120 (arginine restored at CA position 120) (HIV-1 group M)"}, "[2]": {"target": "HIV-1 (M-group) CA Q50Y, disulfide-stabilised hexamer construct (A14C, E45C, Q50Y, W184A, M185A) (HIV-1 group M)"}, "[3]": {"target": "HIV-1 (O-group) CA, disulfide-stabilised hexamer construct (A14C, E45C, W185A, M186A) (HIV-1 group O)"}, "[4]": {"target": "SIVcpz CA, disulfide-stabilised hexamer construct (P14C, E45C, W184A, M185A) (SIVcpz (SIVcpzPtt))"}, "[5]": {"target": "SIVmac CA, disulfide-stabilised hexamer construct (P13C, E44C, W182A, M183A) (SIVmac)"}}, "data": [{"substance": "HIV-1 (M) CA R120 (arginine restored at CA position 120) (natural protein)", "values": [{"measurement": "stoichiometry N", "setting": "[1]", "value": 6}]}, {"substance": "HIV-1 (M-group) CA Q50Y, disulfide-stabilised hexamer construct (A14C, E45C, Q50Y, W184A, M185A) (natural protein)", "values": [{"measurement": "stoichiometry N", "setting": "[2]", "value": 6}]}, {"substance": "HIV-1 (O-group) CA, disulfide-stabilised hexamer construct (A14C, E45C, W185A, M186A) (natural protein)", "values": [{"measurement": "stoichiometry N", "setting": "[3]", "value": 6}]}, {"substance": "SIVcpz CA, disulfide-stabilised hexamer construct (P14C, E45C, W184A, M185A) (natural protein)", "values": [{"measurement": "stoichiometry N", "setting": "[4]", "value": 6}]}, {"substance": "SIVmac CA, disulfide-stabilised hexamer construct (P13C, E44C, W182A, M183A) (natural protein)", "values": [{"measurement": "stoichiometry N", "setting": "[5]", "value": 6}]}]}
